Experimental data taken from publication PMC10458530, “Synthesis and Evaluation of ePSMA-DM1: A New Theranostic Small-Molecule Drug Conjugate (T-SMDC) for Prostate Cancer” (Pharmaceuticals, 2023).
Where “and” joins values, the source holds several entries; their conditions need not be identical. Identical values can stand only once. Entries after “also recorded” stand apart in the source; their conditions may differ. Like-named read-outs stand apart in the source and are kept apart here. Non-standard residues stand in square brackets, D forms with d. Residues, ends and D or L forms follow the SMILES beside them. *: point of attachment. Propanoyl(3-SS-DM1) = COc1cc2cc(c1Cl)N(C)C(=O)C[C@H](OC(=O)[C@H](C)N(C)C(=O)CCSSCCC(=O)*)[C@]1(C)O[C@H]1[C@H](C)[C@@H]1C[C@@](O)(NC(=O)O1)[C@H](OC)/C=C/C=C(\C)C2; DOTA = O=C(O)CN1CCN(CC(=O)O)CCN(CC(=O)*)CCN(CC(=O)O)CC1; EuK = O=C(O)CC[C@H](NC(=O)N[C@@H](CCCCN*)C(=O)O)C(=O)O; Sta = CC(C)C[C@H](N)[C@@H](O)CC(=O)O; Ahx = NCCCCCC(=O)O

Columns and labels:
[1] = Stability in PBS; assay type: physicochemical; settings: 24 h post incubation, 37 °C
Description: [^111In]In-ePSMA-DM1 (~10 MBq, 20 µL) was mixed with 80 μL of PBS (0.01 M, pH 7.4) and incubated at 37 °C for up to 24 h. A sample of the PBS solution was loaded directly onto the radio-HPLC at 1, 4 and 24 h post incubation.

[2] = Stability in mouse serum; assay type: in vitro ADME; settings: 24 h post incubation, 37 °C
Description: [^111In]In-ePSMA-DM1 (~30 MBq, 70 µL) was mixed with 330 μL of mouse serum and incubated at 37 °C for up to 24 h. To a separate vial containing 50 µL of acetonitrile, 50 μL of the mouse serum solution was added after 1, 4 and 24 h of incubation. The sample was centrifuged at 5000× g for 20 min. The supernatant was analyzed by radio-HPLC.

[3] = test system: BALB/c nu/nu LS174T xenografted mice; test: Ex vivo biodistribution; assay type: in vivo, mouse; settings: estimated, one-phase decay
Description: Animal experiments were performed using male BALB/c nude mice (8–10 weeks old; Janvier Labs, Le Genest-Saint-Isle, France). Animals were housed in individually ventilated cages (Blue line IVC, 2 mice per cage) under sterile standard conditions with cage enrichments present and free access to animal chow (Sniff GmbH, Soest, Germany) and water. They were acclimated for 1 week prior to experiments. Mice were subcutaneously inoculated with 4.0 × 10^6 LS174T cells in the right flank diluted in 100 μL of cell suspension […]. The average tumor volume size per group (n = 4) was of 206.2 ± 7.9 mm^3 (average weight of 105.8 ± 7.3 mg) after non-blinded grouping to enable homogenous tumor size distribution. [^111In]In-ePSMA-DM1 was injected intravenously via the tail vein. All experiments were approved by the institutional Animal Welfare Committee and were conducted in accordance to the guidelines of the Revised Dutch Act on Animal Experimentation (WOD).
Mice were intravenously injected with ~1 nmol of [^111In]In-ePSMA-DM1 (5 MBq). Mice (n = 4/timepoint) were euthanized by cervical dislocation at 1, 4 and 24 h p.i. A block group (co-injection of 50 nmol of PSMA-617) was included, and mice were euthanized at 4 h p.i. Organs (blood, heart, lungs, liver, spleen, stomach, intestines, pancreas, kidneys, muscle, skin, bone and prostate) and the tumors were collected in pre-weighed tubes, weighed after organ collection, and measured in the γ-counter, for which the calibration factor was determined by measuring different known activities of In-111. Activity was corrected for decay, and uptake was expressed as percentage of the injected dose per gram of the tissue (% ID/g). The biological half-lives in tissues of [^111In]In-ePSMA-DM1 were determined using a one-phase decay algorithm in GraphPad Prism 9.0 (GraphPad Software, Boston, MA, USA).

[4] = test system: PSMA-positive LS174T cells; test: Resazurin-based cytotoxicity assay; assay type: cell-based, human; settings: for cell viability: 48 h post treatment
Description: LS174T human colon carcinoma cells transfected with human PSMA were cultured in RPMI-1640 media supplemented with 2 mM glutamine, 10% fetal bovine serum (FBS) and 0.3 mg/mL G418 (Geneticin, Sigma Aldrich, Burlington, MA, USA). The cells were provided by Dr. Sandra Heskamp (Radboud UMC, Nijmegen, The Netherlands).
A resazurin in vitro toxicology assay kit was used to determine cytotoxicity. Briefly, 5 × 10^3 LS174T cells were seeded in a volume of 100 µL per well in 96-well plates and incubated at 37 °C with 5% CO2 for 24 h before the experiment. After incubation, the media were removed, and the wells were washed once with PBS. Then, ePSMA-DM1 at the concentrations of 1, 10, 100 and 1000 nM and the positive control DM1 (1000 nM) were prepared in culture media (RPMI-1640 media supplemented with 2 mM glutamine, 10% fetal bovine serum (FBS) and 0.3 mg/mL G418). Media and PSMA-617 (100 nM) were used as negative controls. Cells were incubated with 100 µL of the tested compounds for 48 and 72 h at 37 °C with 5% CO2. After incubation, media were removed, and each well was washed once with PBS. Next, 100 µL of 10% resazurin solution (TOX8, Sigma-Aldrich) in culture media was added to each well and incubated for 2.5 h. Fluorescence was measured using the HIDEX Sense Optical System with excitation at 544 nm and emission at 590 nm. Data were analyzed using GraphPad Prism 9.0 and expressed as cell viability (%). The experiments were performed in triplicate.

[5] = Glutathione (GSH) stability / drug release assay; assay type: in vitro ADME
Description: The protocol was adapted from the literature. A 5 mM solution of L-glutathione was prepared in PBS, and 990 μL aliquots were dispensed into Eppendorf tubes. To each tube, 10 μL of a solution of ePSMA-DM1 (1 mM) in MeOH was added, and the mixtures were incubated at 37 °C. Then 50 μL aliquots of the solution were taken at 10 min, 30 min, 1, 2, 4 and 6 h and analyzed by LC-MS. The experiments were performed in triplicate.

[6] = molecular target: T1, Recombinant human PSMA (Homo sapiens, UniProt Q04609); test: NAALADase enzymatic assay (binding to PSMA); assay type: biochemical
T1 construct: purchased R & D systems, Abingdon, UK
Description: Recombinant human PSMA (rhPSMA; R & D systems, Abingdon, UK) was diluted in assay buffer (50 mM HEPES, 0.1 M NaCl, pH 7.5) to 0.4 μg/mL. The substrate Ac-Asp-Glu (40 μM) was mixed with ePSMA-DM1 or with a reference (PSMA-617) at concentrations ranging from 10^−6 to 10^−13 M in a final volume of 12.5 μL assay buffer. The mixtures were combined with 12.5 μL of the rhPSMA solution and incubated for 1 h at 37 °C in 384-well black polystyrene microplates (ThermoFisher, Bleiswijk, The Netherlands). A volume of 25 μL of a working solution of the Amplex Red glutamic acid kit (ThermoFisher, Bleiswijk, The Netherlands) was added and incubated at 37 °C for 30 min. Release of glutamate was measured by fluorescence with a HIDEX Sense Optical System (Goedereede, The Netherlands) set at 535 nm (excitation) and 590 nm (emission). Data were normalized, and one-site total binding regression was applied for analysis with GraphPad Prism v9.0 (GraphPad Software, San Diego, CA, USA).

T1 sequence (Q04609 whole entry): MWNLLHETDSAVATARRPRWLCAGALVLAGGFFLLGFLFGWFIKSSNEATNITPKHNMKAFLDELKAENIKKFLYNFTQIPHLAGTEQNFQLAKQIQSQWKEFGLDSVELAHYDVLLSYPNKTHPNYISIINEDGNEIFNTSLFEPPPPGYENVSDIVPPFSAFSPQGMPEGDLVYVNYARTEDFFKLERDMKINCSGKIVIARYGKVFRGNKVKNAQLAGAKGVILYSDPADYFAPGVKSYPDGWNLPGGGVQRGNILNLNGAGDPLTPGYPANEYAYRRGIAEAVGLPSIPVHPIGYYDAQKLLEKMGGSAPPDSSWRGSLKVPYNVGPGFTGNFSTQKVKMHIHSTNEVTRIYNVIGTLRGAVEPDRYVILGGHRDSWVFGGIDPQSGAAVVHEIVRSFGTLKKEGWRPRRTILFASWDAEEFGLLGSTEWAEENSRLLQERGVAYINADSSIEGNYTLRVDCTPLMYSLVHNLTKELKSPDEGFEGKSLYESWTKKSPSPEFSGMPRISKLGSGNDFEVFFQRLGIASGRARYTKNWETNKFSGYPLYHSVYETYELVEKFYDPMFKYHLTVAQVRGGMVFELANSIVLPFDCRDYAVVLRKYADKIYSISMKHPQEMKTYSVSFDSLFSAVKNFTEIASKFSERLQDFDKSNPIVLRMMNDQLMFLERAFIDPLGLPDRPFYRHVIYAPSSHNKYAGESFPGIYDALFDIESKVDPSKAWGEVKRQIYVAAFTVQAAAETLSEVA

SMILES: COc1cc2cc(c1Cl)N(C)C(=O)C[C@H](OC(=O)[C@H](C)N(C)C(=O)CCSSCCC(=O)NCCCC[C@H](NC(=O)CN1CCN(CC(=O)O)CCN(CC(=O)O)CCN(CC(=O)O)CC1)C(=O)N[C@@H](CC(=O)O)C(=O)N[C@@H](Cc1ccccc1)C(=O)N[C@@H](CC(C)C)[C@@H](O)CC(=O)NCCCCCC(=O)NCCCC[C@H](NC(=O)N[C@@H](CCC(=O)O)C(=O)O)C(=O)O)[C@]1(C)O[C@H]1[C@H](C)[C@@H]1C[C@@](O)(NC(=O)O1)[C@H](OC)/C=C/C=C(\C)C2 [[^177Lu]Lu-ePSMA-DM1] [metal not drawn] ({DOTA}-K(Propanoyl(3-SS-DM1))DF[Sta][Ahx]-EuK)
- Stability in PBS (%) [1]: 81.4%
- Stability in Mouse Serum (%) [2]: 91.2%

SMILES: COc1cc2cc(c1Cl)N(C)C(=O)C[C@H](OC(=O)[C@H](C)N(C)C(=O)CCSSCCC(=O)NCCCC[C@H](NC(=O)CN1CCN(CC(=O)O)CCN(CC(=O)O)CCN(CC(=O)O)CC1)C(=O)N[C@@H](CC(=O)O)C(=O)N[C@@H](Cc1ccccc1)C(=O)N[C@@H](CC(C)C)[C@@H](O)CC(=O)NCCCCCC(=O)NCCCC[C@H](NC(=O)N[C@@H](CCC(=O)O)C(=O)O)C(=O)O)[C@]1(C)O[C@H]1[C@H](C)[C@@H]1C[C@@](O)(NC(=O)O1)[C@H](OC)/C=C/C=C(\C)C2 [[^111In]In-ePSMA-DM1] [metal not drawn] ({DOTA}-K(Propanoyl(3-SS-DM1))DF[Sta][Ahx]-EuK)
- Stability in PBS (%) [1]: 90.9%
- Stability in Mouse Serum (%) [2]: 82.9%
- half-life in the blood [3]: 1.5 h
- half-life in the tumor [3]: 2.1 h

SMILES: COc1cc2cc(c1Cl)N(C)C(=O)C[C@H](OC(=O)[C@H](C)N(C)C(=O)CCS)[C@]1(C)O[C@H]1[C@H](C)[C@@H]1C[C@@](O)(NC(=O)O1)[C@H](OC)/C=C/C=C(\C)C2 [DM1, Mertansine, reference compound]
- cell viability ([4]; 1000 nM): ~ 50%
- decrease in cell viability ([4]; 1000 nM, 72 h): more than 85%

SMILES: COc1cc2cc(c1Cl)N(C)C(=O)C[C@H](OC(=O)[C@H](C)N(C)C(=O)CCSSCCC(=O)NCCCC[C@H](NC(=O)CN1CCN(CC(=O)O)CCN(CC(=O)O)CCN(CC(=O)O)CC1)C(=O)N[C@@H](CC(=O)O)C(=O)N[C@@H](Cc1ccccc1)C(=O)N[C@@H](CC(C)C)[C@@H](O)CC(=O)NCCCCCC(=O)NCCCC[C@H](NC(=O)N[C@@H](CCC(=O)O)C(=O)O)C(=O)O)[C@]1(C)O[C@H]1[C@H](C)[C@@H]1C[C@@](O)(NC(=O)O1)[C@H](OC)/C=C/C=C(\C)C2 [ePSMA-DM1] ({DOTA}-K(Propanoyl(3-SS-DM1))DF[Sta][Ahx]-EuK)
- drug released ([5]; after 2 h, 5 mM GSH): ~ 50% and 50%
- half-life at 10 µM ([5]; buffer, 5 mM GSH in PBS, 37 °C, read-out: half-life in a reducing environment (converted)): 2 h
- cytotoxic effect ([4]; 1 nM, 48 and 72 h): not sufficient to elicit cell death; also recorded: not observed
- cell viability ([4]; 100 nM): ~ 50%
- cell viability ([4]; 1000 nM): ~ 50%
- IC50 [6]: 45.3 ± 1.84 nM

SMILES: O=C(O)CC[C@H](NC(=O)N[C@@H](CCCCNC(=O)[C@H](Cc1ccc2ccccc2c1)NC(=O)[C@H]1CC[C@H](CNC(=O)CN2CCN(CC(=O)O)CCN(CC(=O)O)CCN(CC(=O)O)CC2)CC1)C(=O)O)C(=O)O [PSMA-617, reference compound]
- decrease in viability ([4]; 100 nM, negative control): not observed
- IC50 ([6]; NAALADase assay, rhPSMA, substrate Ac-Asp-Glu, read-out: IC50 (binding affinity to PSMA)): 2.19 ± 0.78 nM
